Experimental data: the supplement of paper PMC9876800

test system: peptide library, one residue held at a place counted from the S/T acceptor; test: relative phosphorylation of the sub-library (ratio to the mean residue at this position); human; higher = residue favoured; settings: P fixed; at -4
Method in brief: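 Human or orthologue kinase constructs, purified and recombinant, were incubated under kinase-specific conditions in 384-well plates with biotinylated degenerate peptide sub-libraries. Each sub-library fixed one residue at one position around a central Ser/Thr. Incubations lasted 90 min with peptides at 50 μM and 50 μM ATP spiked with γ-32P-ATP, after which spots on streptavidin membranes were phosphorimaged and quantified by densitometry. Relative sub-library phosphorylation is a ratio to the mean residue at that position.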

Sequence of SGK3, construct: aa119-end (Q96BR1 119-496, looked up): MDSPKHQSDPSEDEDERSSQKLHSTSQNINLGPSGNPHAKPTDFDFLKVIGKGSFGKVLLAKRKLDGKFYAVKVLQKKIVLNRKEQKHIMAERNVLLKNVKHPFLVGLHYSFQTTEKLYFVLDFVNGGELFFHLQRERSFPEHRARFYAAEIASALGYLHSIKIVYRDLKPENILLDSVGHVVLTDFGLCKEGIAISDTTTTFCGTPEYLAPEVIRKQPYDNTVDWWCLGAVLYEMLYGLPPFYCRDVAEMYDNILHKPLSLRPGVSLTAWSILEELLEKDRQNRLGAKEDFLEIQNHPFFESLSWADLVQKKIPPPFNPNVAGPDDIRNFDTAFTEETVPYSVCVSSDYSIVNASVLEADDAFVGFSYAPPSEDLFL
Sequence of GRK7, construct: Full length (Q8WTQ7 whole entry, looked up): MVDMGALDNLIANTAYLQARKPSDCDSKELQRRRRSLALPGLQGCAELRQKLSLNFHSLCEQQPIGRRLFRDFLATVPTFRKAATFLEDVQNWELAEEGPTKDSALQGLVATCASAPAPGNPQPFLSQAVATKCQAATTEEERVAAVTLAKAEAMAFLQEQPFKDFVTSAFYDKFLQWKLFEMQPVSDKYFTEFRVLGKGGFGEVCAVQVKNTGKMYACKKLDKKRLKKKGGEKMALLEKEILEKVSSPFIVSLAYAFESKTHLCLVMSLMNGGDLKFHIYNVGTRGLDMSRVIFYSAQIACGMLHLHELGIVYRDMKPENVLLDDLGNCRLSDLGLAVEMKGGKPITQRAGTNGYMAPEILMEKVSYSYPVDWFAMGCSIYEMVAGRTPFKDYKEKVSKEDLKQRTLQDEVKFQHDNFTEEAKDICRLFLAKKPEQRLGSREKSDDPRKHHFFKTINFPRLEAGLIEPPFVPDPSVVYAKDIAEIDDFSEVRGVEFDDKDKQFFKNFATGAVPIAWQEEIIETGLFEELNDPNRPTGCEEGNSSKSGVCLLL
Sequence of NEK11, construct: Full length (Q8NG66 whole entry, looked up): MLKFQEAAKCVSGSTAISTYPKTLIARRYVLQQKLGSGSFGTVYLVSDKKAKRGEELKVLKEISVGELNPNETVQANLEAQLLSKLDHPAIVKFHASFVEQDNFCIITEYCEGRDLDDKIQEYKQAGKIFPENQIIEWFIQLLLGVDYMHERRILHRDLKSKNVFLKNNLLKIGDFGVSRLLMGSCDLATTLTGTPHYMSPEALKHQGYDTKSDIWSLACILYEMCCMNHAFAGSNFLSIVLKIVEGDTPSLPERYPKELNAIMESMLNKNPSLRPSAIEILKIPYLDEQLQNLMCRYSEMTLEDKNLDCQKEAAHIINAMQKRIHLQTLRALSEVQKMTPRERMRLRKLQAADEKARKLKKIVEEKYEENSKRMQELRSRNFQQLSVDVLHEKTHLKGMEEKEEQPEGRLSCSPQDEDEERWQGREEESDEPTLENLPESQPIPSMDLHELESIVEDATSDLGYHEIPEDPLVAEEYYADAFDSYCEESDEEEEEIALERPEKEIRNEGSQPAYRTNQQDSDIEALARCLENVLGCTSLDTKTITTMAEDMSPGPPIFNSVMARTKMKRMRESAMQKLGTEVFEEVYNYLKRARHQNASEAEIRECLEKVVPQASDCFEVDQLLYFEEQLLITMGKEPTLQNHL
Sequence of TP53RK, construct: Full length (Q96S44 whole entry, looked up): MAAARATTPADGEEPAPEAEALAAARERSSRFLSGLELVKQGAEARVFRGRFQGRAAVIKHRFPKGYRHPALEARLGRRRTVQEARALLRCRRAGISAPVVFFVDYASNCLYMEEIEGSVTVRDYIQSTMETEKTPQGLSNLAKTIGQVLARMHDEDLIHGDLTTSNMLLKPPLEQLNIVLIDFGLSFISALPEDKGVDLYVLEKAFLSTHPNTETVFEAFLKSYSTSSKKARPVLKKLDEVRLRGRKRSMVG
Sequence of NEK4, construct: Full length (P51957 whole entry, looked up): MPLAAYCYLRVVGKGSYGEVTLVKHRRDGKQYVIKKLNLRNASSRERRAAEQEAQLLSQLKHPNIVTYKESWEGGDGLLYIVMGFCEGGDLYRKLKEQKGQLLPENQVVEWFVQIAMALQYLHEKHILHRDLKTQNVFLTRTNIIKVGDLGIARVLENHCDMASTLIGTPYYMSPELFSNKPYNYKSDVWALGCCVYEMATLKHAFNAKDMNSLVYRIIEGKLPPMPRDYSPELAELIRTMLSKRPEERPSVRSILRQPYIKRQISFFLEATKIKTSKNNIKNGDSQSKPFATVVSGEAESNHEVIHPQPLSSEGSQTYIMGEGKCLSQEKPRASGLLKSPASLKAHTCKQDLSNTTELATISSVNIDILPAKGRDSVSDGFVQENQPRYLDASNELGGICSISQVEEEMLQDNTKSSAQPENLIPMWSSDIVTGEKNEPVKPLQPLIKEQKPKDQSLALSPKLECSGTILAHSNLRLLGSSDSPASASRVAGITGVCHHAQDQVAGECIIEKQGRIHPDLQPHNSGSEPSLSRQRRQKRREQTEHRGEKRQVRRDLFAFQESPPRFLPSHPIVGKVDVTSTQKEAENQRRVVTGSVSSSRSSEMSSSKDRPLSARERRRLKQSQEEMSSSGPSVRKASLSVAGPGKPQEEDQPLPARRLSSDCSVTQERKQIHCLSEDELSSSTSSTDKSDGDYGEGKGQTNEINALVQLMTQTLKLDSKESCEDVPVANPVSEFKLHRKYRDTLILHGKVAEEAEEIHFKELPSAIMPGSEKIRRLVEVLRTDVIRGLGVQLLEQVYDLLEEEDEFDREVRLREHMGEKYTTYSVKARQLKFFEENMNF
Sequence of AURKB, construct: Full length (Q96GD4 whole entry, looked up): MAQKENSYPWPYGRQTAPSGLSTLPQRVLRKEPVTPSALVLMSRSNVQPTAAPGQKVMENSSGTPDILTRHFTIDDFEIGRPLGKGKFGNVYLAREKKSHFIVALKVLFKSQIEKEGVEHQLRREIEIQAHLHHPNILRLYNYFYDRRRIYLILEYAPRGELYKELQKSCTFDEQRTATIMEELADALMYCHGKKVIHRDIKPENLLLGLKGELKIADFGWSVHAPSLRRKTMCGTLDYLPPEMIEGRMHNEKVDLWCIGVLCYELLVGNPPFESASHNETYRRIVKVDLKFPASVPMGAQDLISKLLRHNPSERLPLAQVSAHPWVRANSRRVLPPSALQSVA
Sequence of GRK2, construct: Full length (P25098 whole entry, looked up): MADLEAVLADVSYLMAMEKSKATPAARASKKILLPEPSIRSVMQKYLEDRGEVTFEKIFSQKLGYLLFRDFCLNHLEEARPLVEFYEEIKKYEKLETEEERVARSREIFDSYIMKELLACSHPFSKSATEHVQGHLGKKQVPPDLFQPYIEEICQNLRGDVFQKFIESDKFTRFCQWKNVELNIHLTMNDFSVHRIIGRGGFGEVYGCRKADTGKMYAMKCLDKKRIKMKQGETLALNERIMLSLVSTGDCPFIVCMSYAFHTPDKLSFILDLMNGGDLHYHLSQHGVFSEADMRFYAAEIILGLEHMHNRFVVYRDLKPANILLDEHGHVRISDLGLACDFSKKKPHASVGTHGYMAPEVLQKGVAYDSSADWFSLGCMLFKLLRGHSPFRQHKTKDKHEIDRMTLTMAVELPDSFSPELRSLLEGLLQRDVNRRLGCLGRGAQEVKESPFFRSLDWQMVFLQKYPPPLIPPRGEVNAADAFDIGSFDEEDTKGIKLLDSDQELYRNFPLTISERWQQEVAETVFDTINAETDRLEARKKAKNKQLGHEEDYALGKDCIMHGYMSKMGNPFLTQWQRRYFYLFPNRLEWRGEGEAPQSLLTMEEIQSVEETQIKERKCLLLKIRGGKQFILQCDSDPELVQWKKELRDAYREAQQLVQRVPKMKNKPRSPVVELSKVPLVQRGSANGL

Substance | relative phosphorylation
GRK7, construct: Full length (from UniProt Q8WTQ7) | 2.61

same assay, conditions: P fixed; at -5

Substance | relative phosphorylation
NEK11, construct: Full length (from UniProt Q8NG66) | 0.927
MKNK1, construct: Full length (D165-205) (from UniProt Q9BUB5) | 1.25
TP53RK, construct: Full length (from UniProt Q96S44) | 0.989
GRK2, construct: Full length (from UniProt P25098) | 0.896
NEK4, construct: Full length (from UniProt P51957) | 1.22
AURKB, construct: Full length (from UniProt Q96GD4) | 0.985
SGK3, construct: aa119-end (from UniProt Q96BR1) | 0.991
GRK7, construct: Full length (from UniProt Q8WTQ7) | 1.16

same assay, conditions: Q fixed; at +1

Substance | relative phosphorylation
NEK11, construct: Full length (from UniProt Q8NG66) | 0.605
MKNK1, construct: Full length (D165-205) (from UniProt Q9BUB5) | 1.8
TP53RK, construct: Full length (from UniProt Q96S44) | 1.04
GRK2, construct: Full length (from UniProt P25098) | 1.12
NEK4, construct: Full length (from UniProt P51957) | 1.02
AURKB, construct: Full length (from UniProt Q96GD4) | 1.18
SGK3, construct: aa119-end (from UniProt Q96BR1) | 0.812
GRK7, construct: Full length (from UniProt Q8WTQ7) | 1.08

same assay, conditions: Q fixed; at +2

Substance | relative phosphorylation
NEK11, construct: Full length (from UniProt Q8NG66) | 0.78
MKNK1, construct: Full length (D165-205) (from UniProt Q9BUB5) | 0.794
TP53RK, construct: Full length (from UniProt Q96S44) | 0.975
GRK2, construct: Full length (from UniProt P25098) | 0.872
NEK4, construct: Full length (from UniProt P51957) | 0.971
AURKB, construct: Full length (from UniProt Q96GD4) | 1.13
SGK3, construct: aa119-end (from UniProt Q96BR1) | 0.625
GRK7, construct: Full length (from UniProt Q8WTQ7) | 0.88

same assay, conditions: Q fixed; at +3

Substance | relative phosphorylation
NEK11, construct: Full length (from UniProt Q8NG66) | 0.885
MKNK1, construct: Full length (D165-205) (from UniProt Q9BUB5) | 0.856
TP53RK, construct: Full length (from UniProt Q96S44) | 0.953
GRK2, construct: Full length (from UniProt P25098) | 0.939
NEK4, construct: Full length (from UniProt P51957) | 0.842
AURKB, construct: Full length (from UniProt Q96GD4) | 0.923
SGK3, construct: aa119-end (from UniProt Q96BR1) | 0.996
GRK7, construct: Full length (from UniProt Q8WTQ7) | 0.896

same assay, conditions: Q fixed; at +4

Substance | relative phosphorylation
NEK11, construct: Full length (from UniProt Q8NG66) | 1.27
MKNK1, construct: Full length (D165-205) (from UniProt Q9BUB5) | 1.29
TP53RK, construct: Full length (from UniProt Q96S44) | 1.08
GRK2, construct: Full length (from UniProt P25098) | 0.994
NEK4, construct: Full length (from UniProt P51957) | 1.08
AURKB, construct: Full length (from UniProt Q96GD4) | 1.32
SGK3, construct: aa119-end (from UniProt Q96BR1) | 0.983
GRK7, construct: Full length (from UniProt Q8WTQ7) | 0.926

same assay, conditions: Q fixed; at -1

Substance | relative phosphorylation
NEK11, construct: Full length (from UniProt Q8NG66) | 0.942
MKNK1, construct: Full length (D165-205) (from UniProt Q9BUB5) | 0.991
TP53RK, construct: Full length (from UniProt Q96S44) | 0.897
GRK2, construct: Full length (from UniProt P25098) | 0.978
NEK4, construct: Full length (from UniProt P51957) | 1.09
AURKB, construct: Full length (from UniProt Q96GD4) | 1.08
SGK3, construct: aa119-end (from UniProt Q96BR1) | 0.804
GRK7, construct: Full length (from UniProt Q8WTQ7) | 1.22

same assay, conditions: Q fixed; at -2

Substance | relative phosphorylation
NEK11, construct: Full length (from UniProt Q8NG66) | 0.944
MKNK1, construct: Full length (D165-205) (from UniProt Q9BUB5) | 0.747
TP53RK, construct: Full length (from UniProt Q96S44) | 0.906
GRK2, construct: Full length (from UniProt P25098) | 0.928
NEK4, construct: Full length (from UniProt P51957) | 1.01
AURKB, construct: Full length (from UniProt Q96GD4) | 0.528
SGK3, construct: aa119-end (from UniProt Q96BR1) | 0.676
GRK7, construct: Full length (from UniProt Q8WTQ7) | 0.687

same assay, conditions: Q fixed; at -3

Substance | relative phosphorylation
NEK11, construct: Full length (from UniProt Q8NG66) | 0.983
MKNK1, construct: Full length (D165-205) (from UniProt Q9BUB5) | 0.926
TP53RK, construct: Full length (from UniProt Q96S44) | 1.06
GRK2, construct: Full length (from UniProt P25098) | 0.889
NEK4, construct: Full length (from UniProt P51957) | 0.766
AURKB, construct: Full length (from UniProt Q96GD4) | 0.775
SGK3, construct: aa119-end (from UniProt Q96BR1) | 0.613
GRK7, construct: Full length (from UniProt Q8WTQ7) | 0.794

same assay, conditions: Q fixed; at -4

Substance | relative phosphorylation
NEK11, construct: Full length (from UniProt Q8NG66) | 1.06
MKNK1, construct: Full length (D165-205) (from UniProt Q9BUB5) | 0.83
TP53RK, construct: Full length (from UniProt Q96S44) | 1.04
GRK2, construct: Full length (from UniProt P25098) | 0.944
NEK4, construct: Full length (from UniProt P51957) | 0.916
AURKB, construct: Full length (from UniProt Q96GD4) | 0.849
SGK3, construct: aa119-end (from UniProt Q96BR1) | 0.988
GRK7, construct: Full length (from UniProt Q8WTQ7) | 0.728

same assay, conditions: Q fixed; at -5

Substance | relative phosphorylation
NEK11, construct: Full length (from UniProt Q8NG66) | 0.893
MKNK1, construct: Full length (D165-205) (from UniProt Q9BUB5) | 0.762
TP53RK, construct: Full length (from UniProt Q96S44) | 0.903
GRK2, construct: Full length (from UniProt P25098) | 0.91
NEK4, construct: Full length (from UniProt P51957) | 0.983
AURKB, construct: Full length (from UniProt Q96GD4) | 0.911
SGK3, construct: aa119-end (from UniProt Q96BR1) | 0.752
GRK7, construct: Full length (from UniProt Q8WTQ7) | 0.73

same assay, conditions: R fixed; at +1

Substance | relative phosphorylation
NEK11, construct: Full length (from UniProt Q8NG66) | 0.494
MKNK1, construct: Full length (D165-205) (from UniProt Q9BUB5) | 1.34
TP53RK, construct: Full length (from UniProt Q96S44) | 0.973
GRK2, construct: Full length (from UniProt P25098) | 0.838
